In patent US5789157 one finds Kd data, which are given here for 1 sequence.

The data set deals with unidentified red blood cell ghost membrane protein, apparent 105 kDa (target of c56t) (Homo sapiens). Kind of data set: filter. The conditions noted are these: Scatchard on whole RBC ghosts, estimated, 1900 sites per cell; target taken as the 105 kDa protein from crosslinking.

pKd: −log10 of the molar value.

Usually pKd stands for the Kd on a negative log10 scale, so that one unit is a factor of ten. Consider “AACTCAGTGGTAGGTAACGGTT [C56T (22-nt truncate of clone 56)]”, for which the pKd was 10.38.
